doi:10.1101/2023.04.27.535981, “Development of constrained peptide inhibitors targeting an oncogenic E3 ubiquitin ligase” (bioRxiv, 2023)
Square brackets hold non-standard residues; d marks the D form. Ends that are not written are not given here. pT = C[C@@H](OP(=O)(O)O)[C@H](N)C(=O)O; Ahx = NCCCCCC(=O)O

Molecular target: T1, Cks1-Skp2-Skp1 complex (GST-Skp2-Skp1-His-Cks1) (human | , UniProt Q13309 1-424; P63208 1-163; P61024 1-79)
T1 construct: Skp2, human; GST-Skp2 fusion from a dicistronic pGEX 4T1 plasmid with Skp1; Skp1, human; second cistron of the pGEX 4T1 GST-Skp2/Skp1 plasmid; Cks1, full length (1-79); The design was based on PDB 2AST, whose constructs may differ; also called Skp1-Skp2-Cks1 complex; Skp2-Skp1-Cks1 complex; source: E. coli C41; GST-Skp2-Skp1 (glutathione Sepharose, SEC) and His-Cks1 (Ni-NTA, SEC) purified, mixed …
T1 sequence (Q13309 whole entry, chain 1 of 3, the tested form may be a part): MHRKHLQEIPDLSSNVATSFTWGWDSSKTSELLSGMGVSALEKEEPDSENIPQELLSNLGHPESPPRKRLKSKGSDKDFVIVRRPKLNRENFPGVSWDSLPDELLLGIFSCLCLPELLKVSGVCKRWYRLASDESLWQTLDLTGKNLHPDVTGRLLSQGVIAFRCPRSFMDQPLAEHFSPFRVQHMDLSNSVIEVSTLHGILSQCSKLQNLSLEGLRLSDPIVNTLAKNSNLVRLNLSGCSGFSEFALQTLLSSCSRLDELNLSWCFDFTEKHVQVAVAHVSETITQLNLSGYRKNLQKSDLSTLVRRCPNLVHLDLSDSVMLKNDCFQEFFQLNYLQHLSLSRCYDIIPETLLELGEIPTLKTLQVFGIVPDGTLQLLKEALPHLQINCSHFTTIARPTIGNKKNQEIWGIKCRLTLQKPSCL
T1 sequence (P63208 whole entry, chain 2 of 3, the tested form may be a part): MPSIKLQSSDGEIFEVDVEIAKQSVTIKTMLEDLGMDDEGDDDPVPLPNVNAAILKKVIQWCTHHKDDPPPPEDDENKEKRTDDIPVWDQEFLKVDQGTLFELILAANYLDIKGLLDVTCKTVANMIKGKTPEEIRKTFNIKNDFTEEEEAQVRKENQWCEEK
T1 sequence (P61024 whole entry, chain 3 of 3, the tested form may be a part): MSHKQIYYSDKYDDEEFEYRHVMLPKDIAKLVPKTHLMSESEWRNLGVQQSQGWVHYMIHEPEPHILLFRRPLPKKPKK
Experiment: fluorescence polarisation; direct FP; protein serially diluted 1:2 (12 points, triplicate) and mixed with 20 nM TAMRA-labelled peptide; SEC buffer (20 mM Tris-HCl pH 7.5, 150 mM NaCl, 1 mM DTT) with 0.01 % Tween-20; 30 min at room temperature
Details: both partners purified

Kd: 2780 ± 190 nM
B1: TAMRA-labelled 10-residue phosphorylated p27 peptide (TAMRA-Ahx-AGSVEQT(phos)PKK) (peptide)
peptide: {TAMRA-Ahx}-AGSVEQ[pT]PKK
notes: p27, amino acids 181-190; also called TAMRA-labelled p27 peptide; TAMRA-labelled unconstrained p27 peptide; source: synthetic peptide
